{
  "source": "paper PMC6759063",
  "about": "(Oncogene, 2008)",
  "target": "cyclin D1 (human (endogenous in HK18), UniProt P24385 1-295)",
  "sequence (P24385 whole entry)": "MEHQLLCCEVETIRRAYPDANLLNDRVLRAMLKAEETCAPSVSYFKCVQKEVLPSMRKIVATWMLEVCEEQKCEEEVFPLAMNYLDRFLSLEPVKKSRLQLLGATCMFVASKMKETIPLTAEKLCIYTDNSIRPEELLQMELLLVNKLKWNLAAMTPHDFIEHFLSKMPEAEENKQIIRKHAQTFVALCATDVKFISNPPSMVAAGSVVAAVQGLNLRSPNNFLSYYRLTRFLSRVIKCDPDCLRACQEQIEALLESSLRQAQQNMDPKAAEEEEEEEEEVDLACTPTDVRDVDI",
  "experiment": "co-IP",
  "data": [
    {"binder": "14-3-3ζ (natural protein, human (endogenous in HK18), UniProt P63104 1-245, looked up) MDKNELVQKAKLAEQAERYDDMAACMKSVTEQGAELSNEERNLLSVAYKNVVGARRSSWRVVSSIEQKTEGAEKKQQMAREYREKIETELRDICNDVLSLLEKFLIPNASQAESKVFYLKMKGDYYRYLAEVAAGDDKKGIVDQSQQAYQEAFEISKKEMQPTHPIRLGLALNFSVFYYEILNSPEKACSLAKTAFDEAIAELDTLSEESYKDSTLIMQLLRDNLTLWTSDTQGDEAEAGEGGEN", "values": [
      {"measurement": "fold decrease of the co-precipitated complex after LDIR (densitometry)", "result": "~50", "unit": "times"}
    ]}
  ]
}
